Earlier results on 1 substance are cited in paper PMC5494978.

The data set concerns the target Bfd (Pseudomonas aeruginosa) (UniProt Q9HY80).
UniProt Q9HY80, sequence (Q9HY80 whole entry): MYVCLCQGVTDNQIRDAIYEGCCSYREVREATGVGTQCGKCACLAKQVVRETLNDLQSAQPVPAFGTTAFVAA

On to BfrB (from UniProt Q9HY79), for which the Kd (usually the constant that tells how readily two partners part at equilibrium) was 3000 nM.
